Data taken from publication PMC6033896, “Discovery of Mcl-1 inhibitors from integrated high throughput and virtual screening” (Scientific Reports, 2018).

Target: recombinant Bfl-1 protein (UniProt Q16548)
Assay: fluorescence polarisation; direct binding of the fluorescent Bid probe to recombinant protein; Ex 485 nm, Em 530 nm, room temperature; buffer of the Kd determination not told apart from the two competitive assay buffers

Chain of recombinant Bfl-1 protein (Q16548 whole entry): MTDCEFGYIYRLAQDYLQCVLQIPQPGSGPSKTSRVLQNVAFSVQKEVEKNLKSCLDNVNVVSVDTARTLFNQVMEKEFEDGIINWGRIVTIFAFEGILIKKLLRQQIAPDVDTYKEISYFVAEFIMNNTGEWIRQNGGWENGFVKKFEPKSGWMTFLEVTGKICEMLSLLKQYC

Kd: 0.3 nM
Substance: fluorescent labelled Bid BH3 peptide
